These results are taken from patent US20240254193A1.

Sequences and labels used below:
B1: super-TRAIL AX-1632, P50591 114-281 (ligand)
chain: VRERGPQRVAAHITGTRGRSNTLSSPNSKNEKALGRKINSWESSRSGHSFLSNLHLRNGELVIHEKGFYYIYSQTYFRFQEEIKENTKNDKQMVQYIYKYTSYPDPILLMKSARNSCWSKDAEYGLYSIYQGGIFELKENDRIFVSVTNEHLIDMDHEASFFGAFLVGGGGGGGGGGVAAHITGTRGRSNTLSSPNSKNEKALGRKINSWESSRSGHSFLSNLHLRNGELVIHEKGFYYIYSQTYFRFQEEIKENTKNDKQMVQYIYKYTSYPDPILLMKSARNSCWSKDAEYGLYSIYQGGIFELKENDRIFVSVTNEHLIDMDHEASFFGAFLVG
B2: super-TRAIL AX-1606, P50591 120-281 (ligand)
chain: QRVAAHITGTRGRSNTLSSPNSKNEKALGRKINSWESSRSGHSFLSNLHLRNGELVIHEKGFYYIYSQTYFRFQEEIKENTKNDKQMVQYIYKYTSYPDPILLMKSARNSCWSKDAEYGLYSIYQGGIFELKENDRIFVSVTNEHLIDMDHEASFFGAFLVGGGGSGGGGSGGQRVAAHITGTRGRSNTLSSPNSKNEKALGRKINSWESSRSGHSFLSNLHLRNGELVIHEKGFYYIYSQTYFRFQEEIKENTKNDKQMVQYIYKYTSYPDPILLMKSARNSCWSKDAEYGLYSIYQGGIFELKENDRIFVSVTNEHLIDMDHEASFFGAFLVG
B3: super-TRAIL AX-1620, P50591 114-281 (ligand)
chain: VRERGPQRVAAHITGTRGRSNTLSSPNSKNEKALGRKINSWESSRSGHSFLSNLHLRNGELVIHEKGFYYIYSQTYFRFQEEIKENTKNDKQMVQYIYKYTSYPDPILLMKSARNSCWSKDAEYGLYSIYQGGIFELKENDRIFVSVTNEHLIDMDHEASFFGAFLVGGGGSGGGGSGGGSGGVAAHITGTRGRSNTLSSPNSKNEKALGRKINSWESSRSGHSFLSNLHLRNGELVIHEKGFYYIYSQTYFRFQEEIKENTKNDKQMVQYIYKYTSYPDPILLMKSARNSCWSKDAEYGLYSIYQGGIFELKENDRIFVSVTNEHLIDMDHEASFFGAFLVG
B4: super-TRAIL AX-1622, P50591 114-281 (ligand)
chain: VRERGPQRVAAHITGTRGRSNTLSSPNSKNEKALGRKINSWESSRSGHSFLSNLHLRNGELVIHEKGFYYIYSQTYFRFQEEIKENTKNDKQMVQYIYKYTSYPDPILLMKSARNSCWSKDAEYGLYSIYQGGIFELKENDRIFVSVTNEHLIDMDHEASFFGAFLVGGGGSGGGVAAHITGTRGRSNTLSSPNSKNEKALGRKINSWESSRSGHSFLSNLHLRNGELVIHEKGFYYIYSQTYFRFQEEIKENTKNDKQMVQYIYKYTSYPDPILLMKSARNSCWSKDAEYGLYSIYQGGIFELKENDRIFVSVTNEHLIDMDHEASFFGAFLVG
B5: super-TRAIL AX-1618, P50591 114-281 (ligand)
chain: VRERGPQRVAAHITGTRGRSNTLSSPNSKNEKALGRKINSWESSRSGHSFLSNLHLRNGELVIHEKGFYYIYSQTYFRFQEEIKENTKNDKQMVQYIYKYTSYPDPILLMKSARNSCWSKDAEYGLYSIYQGGIFELKENDRIFVSVTNEHLIDMDHEASFFGAFLVGGGGSGGGGSGGVAAHITGTRGRSNTLSSPNSKNEKALGRKINSWESSRSGHSFLSNLHLRNGELVIHEKGFYYIYSQTYFRFQEEIKENTKNDKQMVQYIYKYTSYPDPILLMKSARNSCWSKDAEYGLYSIYQGGIFELKENDRIFVSVTNEHLIDMDHEASFFGAFLVG
B6: super-TRAIL AX-1623, P50591 114-281 (ligand)
chain: VRERGPQRVAAHITGTRGRSNTLSSPNSKNEKALGRKINSWESSRSGHSFLSNLHLRNGELVIHEKGFYYIYSQTYFRFQEEIKENTKNDKQMVQYIYKYTSYPDPILLMKSARNSCWSKDAEYGLYSIYQGGIFELKENDRIFVSVTNEHLIDMDHEASFFGAFLVGGGGSGGGGVAAHITGTRGRSNTLSSPNSKNEKALGRKINSWESSRSGHSFLSNLHLRNGELVIHEKGFYYIYSQTYFRFQEEIKENTKNDKQMVQYIYKYTSYPDPILLMKSARNSCWSKDAEYGLYSIYQGGIFELKENDRIFVSVTNEHLIDMDHEASFFGAFLVG
B7: super-TRAIL AX-1630, P50591 114-281 (ligand)
chain: VRERGPQRVAAHITGTRGRSNTLSSPNSKNEKALGRKINSWESSRSGHSFLSNLHLRNGELVIHEKGFYYIYSQTYFRFQEEIKENTKNDKQMVQYIYKYTSYPDPILLMKSARNSCWSKDAEYGLYSIYQGGIFELKENDRIFVSVTNEHLIDMDHEASFFGAFLVGGGGGGGGGVAAHITGTRGRSNTLSSPNSKNEKALGRKINSWESSRSGHSFLSNLHLRNGELVIHEKGFYYIYSQTYFRFQEEIKENTKNDKQMVQYIYKYTSYPDPILLMKSARNSCWSKDAEYGLYSIYQGGIFELKENDRIFVSVTNEHLIDMDHEASFFGAFLVG
B8: super-TRAIL AX-1611, P50591 114-281 (ligand)
chain: VRERGPQRVAAHITGTRGRSNTLSSPNSKNEKALGRKINSWESSRSGHSFLSNLHLRNGELVIHEKGFYYIYSQTYFRFQEEIKENTKNDKQMVQYIYKYTSYPDPILLMKSARNSCWSKDAEYGLYSIYQGGIFELKENDRIFVSVTNEHLIDMDHEASFFGAFLVGGGGGGVAAHITGTRGRSNTLSSPNSKNEKALGRKINSWESSRSGHSFLSNLHLRNGELVIHEKGFYYIYSQTYFRFQEEIKENTKNDKQMVQYIYKYTSYPDPILLMKSARNSCWSKDAEYGLYSIYQGGIFELKENDRIFVSVTNEHLIDMDHEASFFGAFLVG
B9: super-TRAIL AX-1621, P50591 114-281 (ligand)
chain: VRERGPQRVAAHITGTRGRSNTLSSPNSKNEKALGRKINSWESSRSGHSFLSNLHLRNGELVIHEKGFYYIYSQTYFRFQEEIKENTKNDKQMVQYIYKYTSYPDPILLMKSARNSCWSKDAEYGLYSIYQGGIFELKENDRIFVSVTNEHLIDMDHEASFFGAFLVGGGGSGGVAAHITGTRGRSNTLSSPNSKNEKALGRKINSWESSRSGHSFLSNLHLRNGELVIHEKGFYYIYSQTYFRFQEEIKENTKNDKQMVQYIYKYTSYPDPILLMKSARNSCWSKDAEYGLYSIYQGGIFELKENDRIFVSVTNEHLIDMDHEASFFGAFLVG
B10: super-TRAIL AX-1631, P50591 114-281 (ligand)
chain: VRERGPQRVAAHITGTRGRSNTLSSPNSKNEKALGRKINSWESSRSGHSFLSNLHLRNGELVIHEKGFYYIYSQTYFRFQEEIKENTKNDKQMVQYIYKYTSYPDPILLMKSARNSCWSKDAEYGLYSIYQGGIFELKENDRIFVSVTNEHLIDMDHEASFFGAFLVGGGGGGGVAAHITGTRGRSNTLSSPNSKNEKALGRKINSWESSRSGHSFLSNLHLRNGELVIHEKGFYYIYSQTYFRFQEEIKENTKNDKQMVQYIYKYTSYPDPILLMKSARNSCWSKDAEYGLYSIYQGGIFELKENDRIFVSVTNEHLIDMDHEASFFGAFLVG

This experiment concerns the target TRAIL receptors. The experiment can be described thus: cell-based or functional assay.
B1 had an EC50 measured by use of L929 cells of 1.1 ng/mL.
Regarding B2, the EC50 measured by use of L929 cells was determined as 1.05 ng/mL.
Same read-out and setting: with B3 the figure was 2.1 ng/mL.
The molecule B4 gave an EC50 measured by use of L929 cells of 5.3 ng/mL.
As for B5, the EC50 measured by use of L929 cells was determined as 1.5 ng/mL.
On the same count and under the same terms, as for B6, the figure is 0.88 ng/mL; as for B7, 0.78 ng/mL.
On to B8, for which the EC50, viability of H460 cells by MTS assay was 54.7 ng/mL; the EC50, viability of RPMI-8226 cells by MTS assay turned out to be 15.4 ng/mL; the EC50 measured by use of L929 cells is 0.85 ng/mL; the fold enhanced activity to induce apoptosis in L929 cells compared with wild type TRAIL amounted to 30 fold.
B9 showed an EC50 measured by use of L929 cells of 0.95 ng/mL.
As for B10, the EC50 measured by use of L929 cells amounted to 1.2 ng/mL.
